Source: CN108948205A (BEIJING JINDAI BIOTECHNOLOGY CO LTD, dated 2018)

What was measured:
[1] = target: T1, IDH1 R132H突变抗原多肽 (编号 U6184CB080-D); assay: SPR, Biacore 8k, peptide on CM5 chip; reference H09
T1 sequence (peptide): KPIIIGHHAYGDQYC

[2] = target: T2, IDH1 R132H (mutant IDH1 in glioma tissue sections) (UniProt O75874 2-414); assay: immunohistochemistry on glioma paraffin sections
T2 construct: Endogenous protein in patients' glioma paraffin sections; also called IDH1突变; IDH1 R132H突变

[3] = target: T3, IDH1野生型 (wild-type IDH1 in glioma tissue sections) (UniProt O75874 2-414); assay: immunohistochemistry on glioma paraffin sections
T3 construct: Endogenous protein in patients' glioma paraffin sections; also called IDH1 R132H焦磷酸测序野生型样本; 不携带IDH1 R132H突变的胶质瘤样本
T3 sequence (O75874 2-414 limits assumed): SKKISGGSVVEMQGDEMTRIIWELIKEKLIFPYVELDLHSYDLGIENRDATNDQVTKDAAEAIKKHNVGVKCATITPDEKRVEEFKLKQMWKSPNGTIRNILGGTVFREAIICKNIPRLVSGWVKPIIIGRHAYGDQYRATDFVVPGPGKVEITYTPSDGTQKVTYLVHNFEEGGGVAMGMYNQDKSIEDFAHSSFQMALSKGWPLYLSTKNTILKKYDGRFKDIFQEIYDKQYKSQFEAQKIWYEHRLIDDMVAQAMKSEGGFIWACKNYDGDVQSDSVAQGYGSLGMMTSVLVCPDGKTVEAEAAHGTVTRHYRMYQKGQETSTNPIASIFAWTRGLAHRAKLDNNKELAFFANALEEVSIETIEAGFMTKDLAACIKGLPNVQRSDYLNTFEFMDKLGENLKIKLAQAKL

T2 sequence (O75874 2-414 R132H limits assumed): as the sequence (O75874 2-414 limits assumed) above, with R131H counted along it

- fold lower 亲和力平衡常数 (KD) against H09 [1]: 10 fold
- binding result [2]: binds
- binding result [3]: no binding
B1: 10G5-1单克隆抗体 (anti-IDH1 R132H monoclonal antibody secreted by hybridoma 10G5-1, CGMCC No.15783) (antibody, V domains shown)
VH: QVQLQQPGTELVKPGASVHLSCKASGYTFTTYWMHWVKQRPGQGLEWIGDINPSNGETYYNEKFRNKATLTVDKSSRTAYMHLSSLSSEDSAVYYCARGFKDYWGQGTTLTVSS
VL: DVLMTQTPLSLPVSLGDQASISCRSSQTILYSDGVTYLEWYLQKPGQSPKLLIYKVSSRFSGVPDRFSGSGSGTDFTLKISRVVAEDLGIYYCFQGSHVPFTFGSGTKLEIK
notes: Mouse (BALB/c) hybridoma antibody purified on protein A; also called 10G5-1抗体; 1OG5-1抗体
